# Experimental data from patent US7214663B2, “Tripeptide prodrug compounds” (Medarex, Inc., priority 2001, dated 2007).
# Read-outs that look alike come from different tables or passages of the source.
# How the values were obtained:
# [1] = system: HT-29 (colon carcinoma) cells; conditions: HT29, 48 hours, 3H-thymidine incorporation
# Description: (§1) Adherent cells, LNCaP (prostate carcinoma), HT-29 (colon carcinoma) and PC-3 (prostate carcinoma), were cultured in DMEM media containing 10% heat inactivated fetal calf serum (FCS). On the day of the study the cells were detached from the plate with a trypsin solution. The collected cells were washed and resuspended at a concentration of 0.25×10^6 cells/ml in DMEM containing 10% FCS. 100 μl of cell suspension were added to 96 well plates and the plates were incubated for 3 hours to allow the cells to adhere. […] The plates were then incubated for 24 hours, pulsed with 10 μl of a 100 μCi/ml ^3H-thymidine and incubated for an additional 24 hours (total incubation time 48 hours). The plates were harvested using a 96 well Harvester (Packard Instruments) and counted on a Packard Top Count Counter. Four parameter logistic curves were fitted to the ^3H-thymidine incorporation as a function of drug molarity using Prism software to determine IC50 values.
# (§2) Prostate carcinoma cells, LNCaP and PC-3 cells or colon carcinoma cells HT-29, were incubated with increasing concentration of the indicated compounds for 48 hours and cellular proliferation was measured using the ^3H-thymidine assay.
# [2] = system: LNCaP (prostate carcinoma) cells; conditions: 48 hours, 3H-thymidine incorporation
# Description: as §1, §2
# [3] = system: PC-3 (prostate carcinoma) cells; conditions: PC-3, 48 hours, 3H-thymidine incorporation
# Description: as §1, §2
# [4] = Comparative metabolism in mice, plasma AUC
# Description: (§3) Plasma was obtained from three individual animals in each group at 5 minutes, 1, 2, 4, or 6 hr.
# [5] = SD-MTD studies, 60 days, normal mice (Example 14); conditions: mouse, in vivo
# Description: In the single dose Maximum Tolerated Dose (SD-MTD) studies, groups of normal mice were administered intravenous bolus doses of the prodrug. The mice were observed daily for 60 days and body weights measured twice weekly. The SD-MTD was estimated to be equal to the highest dose that produced no death in mice after 60 days.
# [6] = system: HeLa cell anion exchange fraction (F1), trouase; assay: Relative cleavage by HeLa cell anion exchange fraction (F1) versus Suc-βAla-Leu-Ala-Leu standard; type: biochemical, human
# Description: Thirty billion commercially produced HeLa Cells (human cervical carcinoma, Computer Cell Culture Ceizter, Seneffe, Belgium) were homogenized with a sonicator and with a Dounce homogenizer in 108 mL of aqueous lysis solution. The lysis solution contained 0.02% w/v Triton X-100, 0.04% w/v sodium azide, and a cocktail of protease inhibitors (2 tablets/50 mL Complete™, EDTA-free tablets, Roche Molecular Biochemicals). The cell homogenate was centrifuged 30 minutes at 4° C. at 5000×g and the pellet was homogenized in a second 108 mL of lysis solution using a Dounce homogenizer and centrifuged as before. The supernatants were combined and centrifuged for 90 min at 145,000×g at 4° C.
# A portion of the ultracentrifugation supernatant was diluted 2-fold with a 20 mM triethanolamine-HCl pH 7.2 buffer containing 0.01% (w/v) Triton X-100 and 0.02% (w/v) sodium azide (equilibration buffer). Thirty mL of the resulting solution, corresponding to approximately 180 mg of protein, was loaded at 4° C. on a 2.6×9.4 cm Source™ 15Q (Amersham Pharmacia Biotech) low pressure anion exchange chromatography column (1 ml/minute). The column was then washed with 250 ml of the equilibration buffer at a flow rate of 1 mL/minute. Proteins were eluted in a NaCl linear concentration gradient (0–0.5 M in the equilibration buffer, total volume of the gradient was 1000 ml) at a flow rate of 3 ml/minute. Two-minute fractions were collected and used for enzyme activity determination using βAla-Leu-Ala-Leu-Dox as the substrate. Its transformation into Ala-Leu-Dox was quantified by reverse phase high performance liquid chromatography utilizing fluorescence detection of the anthracycline moiety. The fractions containing the highest activity levels were pooled (fractions #43–46; ˜0.13 M NaCl), supplemented with protease inhibitors (Complete™, EDTA-free tablets, Roche Molecular Biochemicals), and stored as aliquots at −80° C.
# Test compounds were incubated for 2 hr at 37° C. at a concentration of 12.5 μg/mL with HeLa cell anion exchange fraction (F1), as prepared in Example 1(c). Following incubation, three volumes of acetonitrile were added to stop the reaction and remove protein from the mixture. The sample was centrifuged at 18,000 g for 5 minutes and 100 μL of supernatant was mixed with 300 μL of water prior to analysis by HPLC. For HPLC analysis 50 μL of sample was injected on a 4.6×50 mm 2μ TSK Super-ODS chromatography column at 40° C. and eluted with a 3 minute linear gradient from 26% to 68% acetonitrile in aqueous 20 mM ammonium acetate pH 4.5 buffer at 2 mL/min. Detection was by fluorescence using an excitation wavelength of 235 nm and an emission wavelength of 560 nm.
# the amount of cleavage of each test compound was compared to the amount of a standard Suc-βAla-Leu-Ala-Leu-therapeutic agent conjugate cleaved by F1 under the same conditions. The therapeutic agent in the standard (Dox or Dnr) was the same as in the test compound. Table 3 provides the relative cleavage rates of several tripeptide prodrugs.
# [7] = Metabolism and clearance of Suc-Met-Ala-Leu-Dox in mice (plasma, urine); type: in vivo, mouse; conditions: mouse, in vivo, iv, 120 mg/kg
# Description: Plasma samples were obtained at 1 or 4 hours, and urine was collected at 2 and 24 hours post administration. Levels of the prodrug and metabolites were measured by LC-MS with UV detection of doxorubicin.
# [8] = mouse, in vivo
# [9] = system: healthy young female normal mice; conditions: Example 7
# [10] = Repeat-dose tolerability / repeat dose MTD in tumor bearing mice; type: in vivo, mouse; conditions: mouse, in vivo, Table 12, re-analyzed
# Description: In one study, one animal in each dose group (n=8) was terminated as a possible drug-related toxicity death late in the study, at Days 58 and 57 in the low and high dose-groups respectively. The safety of the compound was evidenced by little body weight loss in either the high or low dose groups (less than 5% of the initial weight) during the 60-day observation period, in surviving animals (FIG. 14). In the other study, both the high and low dose were well tolerated. Only one animal in the high dose group (n=10) had over 15% of body weight loss at the end of the study (Day 61).
# In repeat-dose studies in tumor bearing mice, groups of ten mice were dosed with various amounts of prodrug for a total of five doses at either five day or 1 week intervals. […] Thus, the prodrugs permit a much greater amount of therapeutic agent to be delivered to the body as a whole and thus to the vicinity of the target cell.
# in vivo = conditions: female, ICR, mouse, iv, 100 umol/kg
# Description: as §3
# [11] = single IV bolus approximately 100 μmol/Kg, ICR mice
# [12] = intravenous, SD MTD (mg/kg), value in parentheses (doxorubicin equivalent dose), Table 11, doses as first stated
# [13] = intravenous, SD MTD (mg/kg), value in parentheses: doxorubicin equivalent dose, Table 12, re-analyzed data and new data
# [14] = intravenous, Table 12, re-analyzed data and new data, read-out: SD MTD
# [15] = iv, Table 11, doses as first stated, intravenous bolus, 60 days, read-out: SD MTD
compound,measurement,setting,value
CC[C@H](C)[C@H](NC(=O)CCC(=O)O)C(=O)N[C@@H](C)C(=O)N[C@@H](CC(C)C)C(=O)N[C@H]1C[C@H](O[C@H]2C[C@](O)(C(=O)CO)Cc3c(O)c4c(c(O)c32)C(=O)c2c(OC)cccc2C4=O)O[C@@H](C)[C@H]1O [Suc-Ile-Ala-Leu-Dox],IC50,[1],47 µM
same,IC50,[2],1.1 µM
same,IC50,[3],88 µM
same,AUC,"[4]; female, ICR, mouse, in vivo, iv, 100 umol/kg",452 µM·h
same,"Dox, area under the plasma concentration time curve","[4]; single IV bolus approximately 100 μmol/Kg of prodrug, ICR mice",0.9 µM·h
same,"AL-Dox or AG-DOX, area under the plasma concentration time curve",[4]; [11],1.0 µM·h
same,"L-Dox or G-Dox, area under the plasma concentration time curve",[4]; [11],6.2 µM·h
COc1cccc2c1C(=O)c1c(O)c3c(c(O)c1C2=O)C[C@@](O)(C(=O)CO)C[C@@H]3O[C@H]1C[C@H](NC(=O)[C@H](CC(C)C)NC(=O)[C@H](Cc2ccc(O)cc2)NC(=O)[C@H](CC(C)C)NC(=O)CCC(=O)O)[C@H](O)[C@H](C)O1 [Suc-Leu-Tyr-Leu-Dox],IC50,[1],42 µM
same,IC50,[2],9.4 µM
same,IC50,[3],51 µM
same,MTD at 60 day,[5]; [12],> 70 mg/kg
same,MTD at 60 day,[5]; [13],> 70 mg/kg
same,MTD at 60 day,[5]; [14],> 128 mg/kg
same,MTD at 60 day,[5]; [15],> 128 mg/kg
COc1cccc2c1C(=O)c1c(O)c3c(c(O)c1C2=O)C[C@@](O)(C(=O)CO)C[C@@H]3O[C@H]1C[C@H](NC(=O)[C@H](CC(C)C)NC(=O)[C@H](C)NC(=O)[C@H](CCSC)NC(=O)CCC(=O)O)[C@H](O)[C@H](C)O1 [Suc-Met-Ala-Leu-Dox],Relative Cleavage %,"[6]; 2 hr at 37° C., 12.5 μg/mL, HeLa F1, relative to Suc-βAla-Leu-Ala-Leu-(Dox or Dnr) standard",49%
same,Relative Rate of Cleavage,[6]; relative to Suc-βAla-Leu-Ala-Leu-Dox = 100 (Tables 11 and 12),49
same,MTD at 60 day,[5]; [12],42 mg/kg
same,MTD at 60 day,[5]; [13],42 mg/kg
same,MTD at 60 day,[5]; [14],70 mg/kg
same,MTD at 60 day,[5]; [15],70 mg/kg
same,"Plasma 4 hr, percent of administered dose",[7],~0.001%
same,"Urine 2 hr, percent of administered dose",[7],6.6%
same,MTD at 28 day,[8]; intravenous,~40 mg/kg
same,MTD at 28 day,[8]; iv,~71 mg/kg
same,"dose of doxorubicin at single dose MTD, fold higher than with doxorubicin alone",[9],about 1.5 fold
same,acute signs of toxicity,[9]; single intravenous 24-120 mg/kg,no acute signs of toxicity
"COc1cccc2c1C(=O)c1c(O)c3c(c(O)c1C2=O)C[C@@](O)(C(=O)CO)C[C@@H]3O[C@H]1C[C@H](NC(=O)[C@H](CC(C)C)NC(=O)[C@H](C)NC(=O)[C@H](CC(C)C)NC(=O)CCNC(=O)CCC(=O)O)[C@H](O)[C@H](C)O1 [Suc-βAla-Leu-Ala-Leu-Dox, reference compound]",MTD,"[5]; SD MTD (mg/kg), value in parentheses (doxorubicin equivalent dose), Table 11, doses as first stated",42 mg/kg
same,MTD,"[5]; SD MTD (mg/kg), value in parentheses: doxorubicin equivalent dose, Table 12, re-analyzed data and new data",28 mg/kg
same,MTD,"[5]; Table 12, re-analyzed data and new data, read-out: SD MTD",50 mg/kg
same,MTD,[5]; [15],75 mg/kg
same,MTD,"[10]; Repeat Dose MTD (mg/kg), value in parentheses: doxorubicin equivalent dose, Q 5 D × 5 or Q 7 D × 5",32 mg/kg
same,MTD,"[10]; Q 5 D × 5 or Q 7 D × 5 as given per compound, read-out: Repeat Dose MTD",57 mg/kg
same,AUC,in vivo,806 µM·h
